Data as given in PMC11995805 (BBA Advances, 2025).

Biological target: T1, Recombinant FLAG-tagged shroom-2 PDZ domain (1st-110th amino acid) (human, UniProt Q13796 1-110)
T1 sequence (looked up): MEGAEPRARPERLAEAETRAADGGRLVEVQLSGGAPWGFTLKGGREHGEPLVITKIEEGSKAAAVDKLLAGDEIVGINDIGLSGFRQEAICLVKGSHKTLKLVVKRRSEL
Assay: co-IP

B1: His-tagged peptide of the carboxy terminus of claudin-11, NH2-…-COOH (peptide)
peptide: {H2N-Met-H2N-H2N-H2N-H2N-H2N-H2N}-PTHAKSAHV-OH
SMILES: CSCC[C@H](N)C(=O)N1CCC[C@H]1C(=O)N[C@H](C(=O)N[C@@H](Cc1c[nH]cn1)C(=O)N[C@@H](C)C(=O)N[C@@H](CCCCN)C(=O)N[C@@H](CO)C(=O)N[C@@H](C)C(=O)N[C@@H](Cc1c[nH]cn1)C(=O)N[C@H](C(=O)O)C(C)C)[C@@H](C)O
Binder B1 has a Kd of 3.36 µM.
